Patent US11352401

What follows are binders tested against T1, HLA-A*01 (human) (assay: UV peptide-exchange ELISA; ++++ = yield >75%).
T1 construct: MHC monomer made peptide-receptive by UV cleavage of a UV-sensitive ligand; also called peptide-receptive MHC class I monomer
From the text: Candidate peptides for T cell based therapies according to the present invention were further tested for their MHC binding capacity (affinity). The individual peptide-MHC complexes were produced by UV-ligand exchange, where a UV-sensitive peptide is cleaved upon UV-irradiation, and exchanged with the peptide of interest as analyzed. Only peptide candidates that can effectively bind and stabilize the peptide-receptive MHC molecules prevent dissociation of the MHC complexes. To determine the yield of the exchange reaction, an ELISA was performed based on the detection of the light chain (β2m) of stabilized MHC complexes. The assay was performed as generally described in Rodenko et al. (Rodenko et al., 2006).
96 well MAXISorp plates (NUNC) were coated over night with 2 ug/ml streptavidin in PBS at room temperature, washed 4× and blocked for 1 h at 37° C. in 2% BSA containing blocking buffer. […] Peptide-MHC monomers of the UV-exchange reaction were diluted 100-fold in blocking buffer. Samples were incubated for 1 h at 37° C., washed four times, incubated with 2 ug/ml HRP conjugated anti-β2m for 1h at 37° C., washed again and detected with TMB solution that is stopped with […]. Absorption was measured at 450 nm.

Row | Binder | peptide exchange yield [%]
1 | LSDLLKQGY [LSDLLKQGY (SEQ ID NO: 158)] | > 75
2 | AAEIGDKSWLY [AAEIGDKSWLY (SEQ ID NO: 134)] | > 75
3 | DSDSCHFNY [DSDSCHFNY (SEQ ID NO: 138)] | > 75
4 | LLDPNPHMY [LLDPNPHMY (SEQ ID NO: 155)] | > 75
5 | ATSKFMEFY [ATSKFMEFY (SEQ ID NO: 137)] | > 75
6 | GTEFTTILY [GTEFTTILY (SEQ ID NO: 148)] | > 75
7 | GTEFTTVLY [GTEFTTVLY (SEQ ID NO: 149)] | > 75
8 | RSDDTAVYY [RSDDTAVYY (SEQ ID NO: 170)] | > 75
9 | LSDTSVIQFY [LSDTSVIQFY (SEQ ID NO: 159)] | > 75
10 | GTELLSLVY [GTELLSLVY (SEQ ID NO: 150)] | > 75
11 | QTDHPQPILDRY [QTDHPQPILDRY (SEQ ID NO: 168)] | > 75
12 | RLDTPLYFSY [RLDTPLYFSY (SEQ ID NO: 169)] | > 75
13 | ASEDSVLLY [ASEDSVLLY (SEQ ID NO: 135)] | > 75
14 | LMDRPIFY [LMDRPIFY (SEQ ID NO: 157)] | > 75

More lines, now with the values ahead:

Row | peptide exchange yield [%] | Binder
15 | > 75 | VSDSECLSRY [VSDSECLSRY (SEQ ID NO: 189)]
16 | > 75 | VTEESFDSKFY [VTEESFDSKFY (SEQ ID NO: 192)]
17 | > 75 | SADDIRGIQSLY [SADDIRGIQSLY (SEQ ID NO: 174)]
18 | > 75 | STDPWIQMAY [STDPWIQMAY (SEQ ID NO: 180)]
19 | > 75 | STAKSATWTY [STAKSATWTY (SEQ ID NO: 179)]
20 | > 75 | YSDDGQKWTVY [YSDDGQKWTVY (SEQ ID NO: 450)]
21 | > 75 | TSDSNLNKY [TSDSNLNKY (SEQ ID NO: 185)]
22 | > 75 | YSDEDVTKY [YSDEDVTKY (SEQ ID NO: 200)]
23 | > 75 | YLDPVQRDLY [YLDPVQRDLY (SEQ ID NO: 198)]
24 | > 75 | SSDEVNFLVY [SSDEVNFLVY (SEQ ID NO: 177)]
25 | > 75 | RTEFNLNQY [RTEFNLNQY (SEQ ID NO: 173)]
26 | > 75 | YVDAVLGKGHQY [YVDAVLGKGHQY (SEQ ID NO: 452)]
27 | > 75 | YSDSLVQKGY [YSDSLVQKGY (SEQ ID NO: 451)]
28 | > 75 | RSDPVTLNVLY [RSDPVTLNVLY (SEQ ID NO: 171)]
29 | > 75 | TLEDIATSHLY [TLEDIATSHLY (SEQ ID NO: 183)]
30 | > 75 | VTEFSLNTY [VTEFSLNTY (SEQ ID NO: 193)]
